Measured values from publication PMC4721541 (Bioscience Reports, 2015).

Target: the molecule itself
Test: SEC; gel filtration on Superdex 200 10/30, 4°C, BAE (150 mM NaCl, 50 mM Tris/HCl, 1 mM EDTA, pH 7.4); oligomer state by elution position against the WT

| Protein | stoichiometry N |
| --- | --- |
| Erv1 (essential for respiration and viability 1), wild type (enzyme, S. cerevisiae, UniProt P27882 1-189, looked up, Erv1, Saccharomyces cerevisiae, FAD-dependent thiol oxidase, 189 amino acids, full length; Construct in pET24a(+) (NdeI/XhoI); also called WT Erv1; WT; source: E. coli Rosetta-gami 2, purified (Ni2+ resin, gel filtration)) MKAIDKMTDNPPQEGLSGRKIIYDEDGKPCRSCNTLLDFQYVTGKISNGLKNLSSNGKLAGTGALTGEASELMPGSRTYRKVDPPDVEQLGRSSWTLLHSVAASYPAQPTDQQKGEMKQFLNIFSHIYPCNWCAKDFEKYIRENAPQVESREELGRWMCEAHNKVNKKLRKPKFDCNFWEKRWKDGWDE | 4 |
| Erv1 W95F (enzyme, S. cerevisiae, UniProt P27882 1-189, looked up, Erv1, Saccharomyces cerevisiae, 189 amino acids, full length, with W95F; Made by site-directed mutagenesis on the construct of m1; source: E. coli Rosetta-gami 2, purified (Ni2+ resin, gel filtration)) MKAIDKMTDNPPQEGLSGRKIIYDEDGKPCRSCNTLLDFQYVTGKISNGLKNLSSNGKLAGTGALTGEASELMPGSRTYRKVDPPDVEQLGRSSFTLLHSVAASYPAQPTDQQKGEMKQFLNIFSHIYPCNWCAKDFEKYIRENAPQVESREELGRWMCEAHNKVNKKLRKPKFDCNFWEKRWKDGWDE | 4 |
| Erv1 W132F (enzyme, S. cerevisiae, UniProt P27882 1-189, looked up, Erv1, Saccharomyces cerevisiae, 189 amino acids, full length, with W132F; Made by site-directed mutagenesis on the construct of m1; source: E. coli Rosetta-gami 2, purified (Ni2+ resin, gel filtration)) MKAIDKMTDNPPQEGLSGRKIIYDEDGKPCRSCNTLLDFQYVTGKISNGLKNLSSNGKLAGTGALTGEASELMPGSRTYRKVDPPDVEQLGRSSWTLLHSVAASYPAQPTDQQKGEMKQFLNIFSHIYPCNFCAKDFEKYIRENAPQVESREELGRWMCEAHNKVNKKLRKPKFDCNFWEKRWKDGWDE | 4 |
| Erv1 W179F (enzyme, S. cerevisiae, UniProt P27882 1-189, looked up, Erv1, Saccharomyces cerevisiae, 189 amino acids, full length, with W179F; Made by site-directed mutagenesis on the construct of m1; source: E. coli Rosetta-gami 2, purified (Ni2+ resin, gel filtration)) MKAIDKMTDNPPQEGLSGRKIIYDEDGKPCRSCNTLLDFQYVTGKISNGLKNLSSNGKLAGTGALTGEASELMPGSRTYRKVDPPDVEQLGRSSWTLLHSVAASYPAQPTDQQKGEMKQFLNIFSHIYPCNWCAKDFEKYIRENAPQVESREELGRWMCEAHNKVNKKLRKPKFDCNFFEKRWKDGWDE | 4 |
| Erv1 W157F (enzyme, S. cerevisiae, UniProt P27882 1-189, looked up, Erv1, Saccharomyces cerevisiae, 189 amino acids, full length, with W157F; Made by site-directed mutagenesis on the construct of m1; source: E. coli Rosetta-gami 2, purified (Ni2+ resin, gel filtration)) MKAIDKMTDNPPQEGLSGRKIIYDEDGKPCRSCNTLLDFQYVTGKISNGLKNLSSNGKLAGTGALTGEASELMPGSRTYRKVDPPDVEQLGRSSWTLLHSVAASYPAQPTDQQKGEMKQFLNIFSHIYPCNWCAKDFEKYIRENAPQVESREELGRFMCEAHNKVNKKLRKPKFDCNFWEKRWKDGWDE | 4 |
| Erv1 W187F (enzyme, S. cerevisiae, UniProt P27882 1-189, looked up, Erv1, Saccharomyces cerevisiae, 189 amino acids, full length, with W187F; Made by site-directed mutagenesis on the construct of m1; source: E. coli Rosetta-gami 2, purified (Ni2+ resin, gel filtration)) MKAIDKMTDNPPQEGLSGRKIIYDEDGKPCRSCNTLLDFQYVTGKISNGLKNLSSNGKLAGTGALTGEASELMPGSRTYRKVDPPDVEQLGRSSWTLLHSVAASYPAQPTDQQKGEMKQFLNIFSHIYPCNWCAKDFEKYIRENAPQVESREELGRWMCEAHNKVNKKLRKPKFDCNFWEKRWKDGFDE | 4 |

Target: the molecule itself
Test: SEC-MALS; multi-angle laser light scattering after Superdex 200 10/30 in buffer A (150 mM NaCl, 50 mM Tris/HCl, pH 7.4); DAWN EOS photometer, Optilab rEX refractor

| Protein | stoichiometry N |
| --- | --- |
| Erv1 W183F (enzyme, S. cerevisiae, UniProt P27882 1-189, looked up, Erv1, Saccharomyces cerevisiae, 189 amino acids, full length, with W183F; Made by site-directed mutagenesis on the construct of m1; FAD content 71% as purified; source: E. coli Rosetta-gami 2, purified (Ni2+ resin, gel filtration)) MKAIDKMTDNPPQEGLSGRKIIYDEDGKPCRSCNTLLDFQYVTGKISNGLKNLSSNGKLAGTGALTGEASELMPGSRTYRKVDPPDVEQLGRSSWTLLHSVAASYPAQPTDQQKGEMKQFLNIFSHIYPCNWCAKDFEKYIRENAPQVESREELGRWMCEAHNKVNKKLRKPKFDCNFWEKRFKDGWDE | 2 |
